Reference: patent US20090163410A1, “Novel Peptides and the Biological Use Thereof” (priority 2005, published 2009)
pIC50: −log10 of the molar value.

Columns and labels:
[1] = biological target: peptide-phage 08B2S3 (fd phage) (UniProt P03661)
[2] = biological target: peptide-phage 07B2S3 (fd phage) (UniProt P03661)
[3] = biological target: HIV-1 (Lai) Nef/SH3-Hck interaction (Human immunodeficiency virus type 1 group M subtype B, UniProt P03406); settings: for repression of the Nef-SH3 interaction as measured in the cell assay: COS-7 cells (FIG. 5B)
Excerpt: This assay makes it possible to integrate the cellular toxicity and bioavailability parameters by means of quantitative and functional reading of the interaction between two protein partners.
The Checkmate™ commercial system (Promega) was adapted to the HIV-1 (Lai) Nef/SH3-Hck pair in COS-7 cell culture (FIG. 5). This system combines the expression of firefly luciferase under the control of the interaction between Nef and the SH3 domain of Hck, and the expression, which is independent, of renilla luciferase, a control for cell viability. The ratio of the intensity of these two luciferases makes it possible to quantify the activity of a Nef-SH3-interaction competitor capable of penetrating into the cell and the half-life of which is sufficient over the time period of the analysis. Other protein interactions are also reconstituted in this assay: one, which is non-SH3 (between Id and MyoD), in order to exclude the compounds having a nonspecific activity on the luciferase expression, and the other between SH3 of Hck and the SAM68 protein, in order to identify the compounds which interact via the SH3 domain and not via Nef.
The cells are transferred using Fugene6 (Roche), according to the distributor's protocol. Briefly, the plasmids PG5 (300 ng), pAct or pActNef (400 ng), pBindHckmutated or pBindHck (100 ng) and pbcks (200 ng) are mixed, and then the Fugene 6 (3 μl diluted in 100 μl of DMEM culture medium) is added. The plasmids/Fugene6 mixture is left to react for a period of 15 min at ambient temperature, and is then deposited dropwise into the cell culture well.
After expression for 24H, the cells are harvested by treatment with trypsin (Gibco, ref 25300-054), washed, and then dispensed into 96-well plates (reference 353072, Beckton Dickinson). 50 μl of DMEM culture medium are then added to each well.
The activity of a candidate inhibitor compound is tested by adding 25 μl of this diluted compound to the well already containing 50 μl of the cell culture, and the luciferase activity is determined 24 H later in each well using the DualGlo assay kit according to the recommendations of the supplier (Promega).

Substance | repression of the Nef-SH3 interaction as measured in the cell assay [3] | other results
NefΔ1-57 protein (Nef HIV-1 LAI, residues 1 to 57 deleted) (from UniProt P03406 58-206) | – | pIC50 [1]: 6.00; pIC50 [2]: 6.00
R Ahx R Ahx R Ahx R Ahx R Ahx R Ahx R W P A W L P [SEQ ID No. 19] | repress the Nef-SH3 interaction as measured in the cell assay, in a dose-dependent manner | –
R Q I K I W F Q N R Nle K W K K [SEQ ID No. 15] | repress the Nef-SH3 interaction as measured in the cell assay, in a dose-dependent manner | –
R R R R R R R R W P A W L P [SEQ ID No. 17] | repress the Nef-SH3 interaction as measured in the cell assay, in a dose-dependent manner | –
W P A W L P (WPAWLP) [SEQ ID No. 11] | – | biological activity on the Nef-SH3 interaction (firefly/renilla luciferase ratio) ([3]; COS-7 cells, 10 to 50 μM of the peptide, compared with a control molecule, various times and periods of addition (FIG. 5B)): does not show any notable biological activity at low concentration
